From the supplement of paper PMC10126150
± gives the standard deviation of the averaged measurements.

Each sequence was assayed on ATP (assay: switch fluorescence ratio, 500 uM ATP over buffer (Cy3 cluster intensity, sum of 5 cycles each) (fold (ratio)); higher = stronger signal-on switching upon ATP binding; sequences stand for … in TCGTCGGCAGCGTCAGATGTGTATAAGAGACAGTTTTTTTTTTTTTTTTTTTTTTTTT…TC). Conditions: aptamer strand: ATP DNA aptamer (quencher-CACCTGGGGGAGTATTGCGGAGGAAGG + anchor), 100 nM annealed; ATP concentration: 500 uM.
Procedure, shortened: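 The quencher-labelled ATP aptamer, at 100 nM, was annealed to Cy3-labelled switching-strand clusters on a modified Illumina MiSeq flow-cell. The clusters were imaged in selection buffer, then after 15 min with 500 uM ATP at 22 °C, and this buffer/ATP cycle ran five times with NaOH stripping and re-annealing between runs. Per-cluster fluorescence ratios, summed target-cycle over summed buffer-cycle Cy3 intensity, were averaged per switch-domain sequence. Clusters outside 100-1000 RFU were excluded.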
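Note: ATP exposure 15 min at 22 °C before imaging.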

| Sequence | switch fluorescence ratio |
| --- | --- |
| GGGTTACTGT | 0.985 ± 0.012 |
| GGGTTAGGAT | 0.98 ± 0.029 |
| GGGTTAGGTC | 1.02 ± 0.013 |
| GGGTTAGTAG | 1 ± 0.017 |
| GGGTTAGTGG | 0.976 ± 0.032 |
| GGGTTATGAA | 0.994 ± 0.022 |
| GGGTTATGGT | 0.998 ± 0.028 |
| GGGTTATTGG | 0.991 ± 0.04 |
| GGGTTATTTC | 1.02 ± 0.023 |
| GGGTTCAAAG | 0.9818 ± 0.006 |
| GGGTTCAAGG | 0.995 ± 0.048 |
| GGGTTCAGGT | 1.0068 ± 0.00055 |
| GGGTTCAGTG | 0.982 ± 0.026 |
| GGGTTCATGG | 1.01 ± 0.047 |
| GGGTTCATTT | 1.019 ± 0.0015 |
| GGGTTCCAGG | 1.26 ± 0.098 |
| GGGTTCGGTG | 1.01 ± 0.039 |
| GGGTTCTATT | 1 ± 0.014 |
| GGGTTCTTC | 1.05 ± 0.1 |
| GGGTTCTTGT | 1.04 ± 0.057 |
| GGGTTCTTTA | 0.997 ± 0.048 |
| GGGTTGACCT | 1.07 ± 0.067 |
| GGGTTGAGGT | 0.9843 ± 0.0092 |
| GGGTTGATAG | 1.01 ± 0.021 |
| GGGTTGATCG | 0.9875 ± 0.0046 |
| GGGTTGCAAC | 1.24 ± 0.32 |

| Sequence | switch fluorescence ratio |
| --- | --- |
| GGGTTGCTGG | 1 ± 0.03 |
| GGGTTGCTTA | 0.99 ± 0.023 |
| GGGTTGGAAT | 0.9878 ± 0.003 |
| GGGTTGGGG | 0.995 ± 0.048 |
| GGGTTGGGGA | 1.01 ± 0.025 |
| GGGTTGTCTG | 0.961 ± 0.063 |
| GGGTTGTTGC | 1 ± 0.037 |
| GGGTTTAGAC | 0.982 ± 0.032 |
| GGGTTTATCT | 0.986 ± 0.039 |
| GGGTTTCGAA | 0.9702 ± 0.0018 |
| GGGTTTCGAG | 1.04 ± 0.016 |
| GGGTTTCGAT | 0.984 ± 0.024 |
| GGGTTTCGTG | 0.993 ± 0.015 |
| GGGTTTCTCT | 0.994 ± 0.032 |
| GGGTTTGAGA | 1.005 ± 0.0042 |
| GGGTTTGGGG | 0.988 ± 0.022 |
| GGGTTTGTA | 0.965 ± 0.04 |
| GGGTTTGTAC | 1.13 ± 0.12 |
| GGGTTTGTGT | 1.01 ± 0.019 |
| GGGTTTTATT | 0.981 ± 0.036 |
| GGGTTTTCGA | 1.014 ± 0.0011 |
| GGGTTTTCGT | 0.9538 ± 0.0032 |
| GGGTTTTTAC | 1.03 ± 0.033 |
| GGGTTTTTGG | 0.997 ± 0.032 |
| GGGTTTTTTT | 0.998 ± 0.044 |
| GGTAAAAGTC | 1.01 ± 0.012 |

| Sequence | switch fluorescence ratio |
| --- | --- |
| GGTAAAGCAT | 1.027 ± 0.006 |
| GGTAACGTTC | 0.989 ± 0.015 |
| GGTAAGGGGA | 0.991 ± 0.033 |
| GGTAAGTGTT | 1.003 ± 0.0044 |
| GGTAATAGAG | 0.987 ± 0.05 |
| GGTAATGGCA | 1.01 ± 0.039 |
| GGTAATTTAG | 1.02 ± 0.015 |
| GGTAATTTGA | 0.989 ± 0.024 |
| GGTAATTTTC | 1.11 ± 0.18 |
| GGTACAAGG | 1.01 ± 0.029 |
| GGTACAGGAC | 1.06 ± 0.047 |
| GGTACAGGGC | 1.065 ± 0.0073 |
| GGTACCACTT | 0.992 ± 0.039 |
| GGTACGGGCC | 1.011 ± 0.01 |
| GGTACGTCGG | 0.979 ± 0.048 |
| GGTACTGGAC | 1.087 ± 0.0021 |
| GGTAGACTTT | 0.967 ± 0.017 |
| GGTAGGCGAA | 0.9775 ± 0.0013 |
| GGTAGGTCGT | 1.02 ± 0.074 |
| GGTAGGTTGC | 1.03 ± 0.013 |
| GGTAGTAGAT | 1.01 ± 0.0072 |
| GGTAGTAGGC | 1.014 ± 0.0019 |
| GGTAGTAGTG | 1.0054 ± 0.00082 |
| GGTAGTCGGG | 0.968 ± 0.014 |
| GGTAGTGCTG | 0.982 ± 0.042 |
| GGTAGTTGGT | 1.01 ± 0.011 |

| Sequence | switch fluorescence ratio |
| --- | --- |
| GGTAGTTTTC | 0.9916 ± 0.0039 |
| GGTATAATAC | 1.23 ± 0.041 |
| GGTATAATTG | 1.021 ± 0.0062 |
| GGTATATAAA | 1.003 ± 0.0029 |
| GGTATATGTT | 1.01 ± 0.015 |
| GGTATATTCC | 1.02 ± 0.024 |
| GGTATCGAGG | 1.01 ± 0.015 |
| GGTATGCTCT | 0.998 ± 0.065 |
| GGTATGGTCT | 1.02 ± 0.022 |
| GGTATGTTGG | 0.996 ± 0.011 |
| GGTATTAGGA | 0.9669 ± 0.0076 |
| GGTATTCCGT | 1.03 ± 0.045 |
| GGTATTCGAA | 1.054 ± 0.0022 |
| GGTATTGAGT | 0.992 ± 0.03 |
| GGTATTGCGT | 0.977 ± 0.042 |
| GGTATTGGGA | 0.989 ± 0.018 |
| GGTATTGGTT | 0.987 ± 0.048 |
| GGTATTTGGT | 0.988 ± 0.03 |
| GGTATTTTGG | 0.953 ± 0.035 |
| GGTCAAGGGG | 0.9826 ± 0.0088 |
| GGTCAGGTGA | 0.972 ± 0.073 |
| GGTCATGGCG | 1.02 ± 0.098 |
| GGTCATTGTT | 0.9635 ± 0.0031 |
| GGTCCGGAGC | 1.1577 ± 0.00066 |
| GGTCCGTCGA | 1.02 ± 0.064 |
| GGTCCTCGTG | 0.998 ± 0.027 |

| Sequence | switch fluorescence ratio |
| --- | --- |
| GGTCCTGGGC | 1.01 ± 0.013 |
| GGTCGCAGTC | 0.9649 ± 0.0016 |
| GGTCGCCGGG | 0.976 ± 0.081 |
| GGTCGGGGAG | 0.9987 ± 0.0028 |
| GGTCGGGGGA | 0.99 ± 0.061 |
| GGTCGGGTAC | 0.9676 ± 0.0094 |
| GGTCGGTATT | 1.08 ± 0.12 |
| GGTCGGTGCG | 0.9914 ± 0.0098 |
| GGTCGGTTGG | 0.97591 ± 0.00041 |
| GGTCGTGCGC | 0.996 ± 0.029 |
| GGTCTAGAGT | 1 ± 0.014 |
| GGTCTAGGCA | 0.987 ± 0.02 |
| GGTCTGCAGC | 1.003 ± 0.0062 |
| GGTCTGGGGG | 0.955 ± 0.012 |
| GGTCTGGGGT | 1.09 ± 0.21 |
| GGTCTTAACT | 0.967 ± 0.028 |
| GGTCTTCTTT | 0.994 ± 0.029 |
| GGTCTTTTTT | 1.02 ± 0.05 |
| GGTGAAGACC | 0.9598 ± 0.0086 |
| GGTGACAAAT | 0.9777 ± 0.003 |
| GGTGACCTTG | 0.9891 ± 0.0037 |
| GGTGACGCAC | 1.62 ± 0.057 |
| GGTGAGGGTA | 0.991 ± 0.012 |
| GGTGAGTCGG | 0.9925 ± 0.0029 |
| GGTGAGTTAC | 0.98 ± 0.013 |
| GGTGATAAAT | 0.991 ± 0.025 |

| Sequence | switch fluorescence ratio |
| --- | --- |
| GGTGATACGG | 1.012 ± 0.0022 |
| GGTGATAGTT | 0.994 ± 0.017 |
| GGTGCAAGCT | 1.019 ± 0.0023 |
| GGTGCAAGTT | 1.02 ± 0.042 |
| GGTGCAGGTA | 0.984 ± 0.025 |
| GGTGCCGTGC | 0.995 ± 0.034 |
| GGTGCGATTG | 1.07 ± 0.052 |
| GGTGCGTAGG | 1 ± 0.012 |
| GGTGCGTTGG | 1.03 ± 0.042 |
| GGTGCTGGAG | 0.98 ± 0.011 |
| GGTGGACTTG | 1 ± 0.041 |
| GGTGGAGGGA | 0.987 ± 0.031 |
| GGTGGAGGGG | 1 ± 0.0022 |
| GGTGGATACA | 1.005 ± 0.0036 |
| GGTGGGAATG | 0.99 ± 0.023 |
| GGTGGGACAA | 0.966 ± 0.042 |
| GGTGGGAGAC | 1.01 ± 0.03 |
| GGTGGGAGCA | 1.04 ± 0.034 |
| GGTGGGAGGG | 1.008 ± 0.0073 |
| GGTGGGATTT | 0.9506 ± 0.0055 |
| GGTGGGGAAA | 1.0255 ± 0.00086 |
| GGTGGGGAGA | 1.017 ± 0.0086 |
| GGTGGGGAGT | 1.01 ± 0.021 |
